Data: patent publication US20140141019A1 (INSERM INSTITUT NATIONALDE LA SENTE ET DE LA RECHERCHE …, published 2014)
Where a chain is given by its changes, count along the chain named. Names may count otherwise. Ends that are not written are not given here.

T1: human HER4-Fc (recombinant human extracellular domain ErbB4/HER4 Fc chimera, R&D Systems) (human, UniProt Q15303 26-651)
T1 construct: extracellular domain; Bought protein; Fc part of the bought chimera not given
T1 sequence (looked up): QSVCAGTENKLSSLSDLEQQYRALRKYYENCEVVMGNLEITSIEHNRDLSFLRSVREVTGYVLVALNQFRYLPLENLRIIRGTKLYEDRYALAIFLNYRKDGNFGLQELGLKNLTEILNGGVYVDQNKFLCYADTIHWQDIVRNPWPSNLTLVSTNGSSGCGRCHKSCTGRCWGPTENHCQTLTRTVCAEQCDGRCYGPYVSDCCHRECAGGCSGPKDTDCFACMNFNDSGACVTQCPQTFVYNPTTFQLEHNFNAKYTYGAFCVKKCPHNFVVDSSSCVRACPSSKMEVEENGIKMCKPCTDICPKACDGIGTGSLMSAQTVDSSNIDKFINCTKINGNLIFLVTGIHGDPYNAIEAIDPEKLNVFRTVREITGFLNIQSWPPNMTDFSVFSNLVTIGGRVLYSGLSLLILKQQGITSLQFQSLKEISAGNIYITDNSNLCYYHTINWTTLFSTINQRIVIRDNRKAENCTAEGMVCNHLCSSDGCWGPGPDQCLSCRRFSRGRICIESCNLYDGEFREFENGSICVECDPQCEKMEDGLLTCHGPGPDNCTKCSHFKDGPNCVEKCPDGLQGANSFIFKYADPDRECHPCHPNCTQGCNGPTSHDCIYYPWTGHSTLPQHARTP

T2: HER3 peptide 343-357 DFLITGLNGDPWHKI (human, also: cellulose-bound)
T2 construct: SPOT peptide
T2 peptide: Ac-DFLITGLNGDPWHKI

B1: mAb H3A-32 (purified human IgG) (antibody, V domains shown)
VH: EVQLVESGGGLVQPGGSLRLSCAASGFTFDDYAMHWVRQAPGKGLEWVSGISWNSGSIGYADSVKGRFTISRDNAKNSLYLQMNSLRAEDTAVYYCAREGQWPNYGMDVWGQGTTVTVSS
VL: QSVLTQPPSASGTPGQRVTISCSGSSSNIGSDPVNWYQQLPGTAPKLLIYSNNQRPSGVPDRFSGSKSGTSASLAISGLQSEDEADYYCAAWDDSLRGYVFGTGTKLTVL
notes: expressed as human IgG1 in transiently transfected HEK 293 cells, protein A purified
B2: mAb H4B-121 (purified human IgG) (antibody, V domains shown)
VH: B1 VH with G16R
VL: QSVLTQPPSVSAAPGQKVTISCPGSSSNIGNNYVSWYQQLPGTAPKLLIYDNNERPSGIPDRFSGSTSGTSATLDITDLQAEDEATYYCGAWDNTLGVYVLGTGTQLTVL
notes: expressed as human IgG1 in HEK 293 cells
B3: mAb H3A-76 (purified human IgG) (antibody, V domains shown)
VH: B1 VH with G16R, N77D
VL: QSVLTQPPSASGTPGQRVTISCSGSSSNIGSNSLNWYQQLPGTAPKLLIYSNNQRPPGVPDRFSGSRSGSSASLAISGLQSGDEGDYYCAAWDDSLKGYVFGTGTQLTVL
notes: as for B2
B4: mAb H4B-05 (purified human IgG) (antibody, V domains shown)
VH: B1 VH with G16R
VL: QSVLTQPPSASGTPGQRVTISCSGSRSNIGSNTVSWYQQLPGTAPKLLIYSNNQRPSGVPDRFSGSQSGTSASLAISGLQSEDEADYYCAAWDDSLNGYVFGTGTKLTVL
notes: as for B2
B5: mAb H3A-81 (purified human IgG) (antibody, V domains shown)
VH: B1 VH
VL: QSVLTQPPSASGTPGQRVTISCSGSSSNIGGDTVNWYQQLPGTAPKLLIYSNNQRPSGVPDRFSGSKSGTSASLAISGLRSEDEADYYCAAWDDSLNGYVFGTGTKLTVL
notes: as for B2
B6: U1-59 (Amgen/U3 Pharma-Daiichi Sankyo) (antibody, V domains shown)
VH: QVQLQQWGAGLLKPSETLSLTCAVYGGSFSGYYWSWIRQPPGKGLEWIGEINHSGSTNYNPSLKSRVTISVETSKNQFSLKLSSVTAADTAVYYCARDKWTWYFDLWGRGTLVTVSS
VL: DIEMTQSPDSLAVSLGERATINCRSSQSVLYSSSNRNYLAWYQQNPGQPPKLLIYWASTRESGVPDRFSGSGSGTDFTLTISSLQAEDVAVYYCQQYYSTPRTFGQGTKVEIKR
B7: Ab#6 (Merrimack Pharmaceuticals) (antibody, V domains shown)
VH: EVQLLESGGGLVQPGGSLRLSCAASGFTFSHYVMAWVRQAPGKGLEWVSSISSSGGWTLYADSVKGRFTISRDNSKNTLYLQMNSLRAEDTAVYYCTRGLKMATIFDYWGQGTLVTVSS
VL: QSALTQPASVSGSPGQSITISCTGTSSDVGSYNVVSWYQQHPGKAPKLIIYEVSQRPSGVSNRFSGSKSGNTASLTISGLQTEDEADYYCCSYAGSSIFVIFGGGTKVTVL
B8: Fab H3A-32 (Fab, V domains shown)
VH: B1 VH
VL: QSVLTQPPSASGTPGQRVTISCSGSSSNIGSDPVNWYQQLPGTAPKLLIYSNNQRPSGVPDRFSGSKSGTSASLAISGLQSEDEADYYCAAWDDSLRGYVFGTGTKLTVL
notes: Fab made in E. coli periplasm with a V5 tag and a C-terminal 6xHis tag; also called H3A-32 (Fab format)
B9: Fab H4B-121 (Fab, V domains shown)
VH: B1 VH with G16R
VL: B2 VL
notes: Fab made in E. coli periplasm with a V5 tag and a C-terminal 6xHis tag
B10: Fab H3A-81 (Fab, V domains shown)
VH: B1 VH
VL: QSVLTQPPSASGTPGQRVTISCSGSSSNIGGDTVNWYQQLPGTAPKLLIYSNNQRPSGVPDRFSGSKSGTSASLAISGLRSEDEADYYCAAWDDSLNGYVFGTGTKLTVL
notes: Fab made in E. coli periplasm with a V5 tag and a C-terminal 6xHis tag; also called H3A-81 (Fab format)
B11: Fab H4B-05 (Fab, V domains shown)
VH: B1 VH with G16R
VL: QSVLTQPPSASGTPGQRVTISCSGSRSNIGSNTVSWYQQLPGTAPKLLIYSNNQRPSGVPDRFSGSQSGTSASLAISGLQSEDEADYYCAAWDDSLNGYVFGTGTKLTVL
notes: Fab made in E. coli periplasm with a V5 tag and a C-terminal 6xHis tag; also called H4B-05 (Fab format)
B12: Fab H3A-76 (Fab, V domains shown)
VH: B1 VH with G16R, N77D
VL: B3 VL
notes: Fab made in E. coli periplasm with a V5 tag and a C-terminal 6xHis tag; also called H3A-76 (Fab format)

The binders below were run against T3, EGFR on transfected NIH 3T3 cells (human, UniProt P00533 25-1210) (assay: flow cytometry, transfected NIH 3T3 cells).
T3 construct: whole, on cells
Experimental: (§1) After three washes in PBS-BSA 0.1%, cells were incubated with the fluorescein-conjugated anti-human IgG-Fragment Fc specific (Sigma) at 4° C. in the dark for 45 min. Cells were then washed three times and suspended in PBS for analysis using an EPICS flow cytometer (Beckman-Coulter, Fullerton, Calif.).

binding result	Binder
no binding	B1
no binding	B2
no binding	B3
no binding	B4
no binding	B5

The binders below were run against T4, EGFR/HER4 on transfected NIH 3T3 cells (human, UniProt P00533 25-1210; Q15303 26-1308) (assay: flow cytometry, transfected NIH 3T3 cells).
T4 construct: whole, on cells; NIH 3T3 cells transfected with both EGFR and HER4
Experimental: as §1

binding result	Binder
no binding	B1
no binding	B2
no binding	B3
no binding	B4
no binding	B5

The binders below were run against T5, HER2 on transfected NIH 3T3 cells (human, UniProt P04626 23-1255) (assay: flow cytometry, transfected NIH 3T3 cells).
T5 construct: whole, on cells
Experimental: as §1

binding result	Binder
no binding	B1
no binding	B2
no binding	B3
no binding	B4
no binding	B5

What follows are binders tested against T6, HER2/HER3 complex on transfected NIH 3T3 cells (human, UniProt P04626 23-1255; P21860 20-1342) (assay: flow cytometry, HER2/HER3-transfected NIH-3T3 cells).
T6 construct: whole, on cells; NIH 3T3 cells transfected with both HER2 and HER3; also called HER2-HER3 heterodimer
Experimental: as §1

geometric mean	Binder
15.5	B6
14.1	B7
68.8	B1
70.4	B2
66.6	B3
13.3	B4
68.5	B5

The binders below were run against T4, EGFR/HER4 on transfected NIH 3T3 cells (assay: flow cytometry, EGFR/HER4-transfected NIH-3T3 cells).
Experimental: as §1

geometric mean	Binder
0.59	B6
0.51	B7
0.53	B1
0.67	B2
0.53	B3
0.52	B4
0.53	B5

The binders below were run against T7, mouse HER3-Fc (recombinant mouse extracellular domain ErbB3/HER3 Fc chimera, R&D Systems) (mouse, UniProt Q61526 20-641) (assay: ELISA, coated mouse HER3-Fc 250 ng/ml).
T7 construct: extracellular domain; Bought protein; also called murine HER3; Fc part of the bought chimera not given
T7 sequence (Q61526 20-641, change not shown): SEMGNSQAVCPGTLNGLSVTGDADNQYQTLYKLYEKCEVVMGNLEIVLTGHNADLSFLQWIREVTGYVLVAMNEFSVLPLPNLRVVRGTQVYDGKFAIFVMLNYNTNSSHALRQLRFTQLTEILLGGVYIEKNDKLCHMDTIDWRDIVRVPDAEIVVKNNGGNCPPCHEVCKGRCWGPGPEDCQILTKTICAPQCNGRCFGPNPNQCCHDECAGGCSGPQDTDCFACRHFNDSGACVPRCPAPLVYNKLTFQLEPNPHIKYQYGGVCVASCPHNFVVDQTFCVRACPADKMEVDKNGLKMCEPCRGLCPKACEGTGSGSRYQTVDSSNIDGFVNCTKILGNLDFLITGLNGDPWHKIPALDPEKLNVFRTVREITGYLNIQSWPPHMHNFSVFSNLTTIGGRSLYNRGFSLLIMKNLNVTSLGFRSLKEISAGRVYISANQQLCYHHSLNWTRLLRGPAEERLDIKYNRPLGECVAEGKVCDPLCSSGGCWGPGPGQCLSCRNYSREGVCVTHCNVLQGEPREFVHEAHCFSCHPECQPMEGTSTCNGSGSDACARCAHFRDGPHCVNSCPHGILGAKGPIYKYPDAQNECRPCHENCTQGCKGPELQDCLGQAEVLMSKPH

binding result	Binder
binds	B1
binds	B2
binds	B3
binds	B4
binds	B5

The binders below were run against T5, HER2 on transfected NIH 3T3 cells (assay: flow cytometry, HER2-transfected NIH-3T3 cells).
Experimental: as §1

geometric mean	Binder
0.42	B6
0.35	B7
0.44	B1
0.56	B2
0.52	B3
0.41	B4
0.5	B5

These binders were tested against T8, HER3 receptor on cells (HER3-transfected NIH 3T3 fibroblasts; SKBR3 cells; BxPC3 cells) (human, UniProt P21860 20-1342) (assay: flow cytometry, HER3-transfected NIH-3T3 cells).
T8 construct: whole, on cells; also called ErbB3
Experimental: as §1

geometric mean	Binder
9.32	B6
7.77	B7
10.5	B1
12.3	B2
11.5	B3
7.85	B4
10.6	B5

These binders were tested against T1, human HER4-Fc (recombinant human …) (assay: ELISA, coated HER4-Fc 250 ng, anti-V5-HRP).
Experimental: The purified human Fabs at various concentrations were incubated for 2 hours at 37° C. in coated wells at 250 ng HER3-Fc (or HER4-Fc). The bound Fabs were detected by using HRP-labeled anti-V5 antibody (Invitrogen). Revelation was done at 450 nm in the presence of TMB (Sigma). The Fabs were tested simultaneously for binding on HER3-Fc, HER4-Fc and on Bovine serum Albumin as control.

binding result	Binder
no binding	B8
no binding	B9
no binding	B10
no binding	B11
no binding	B12

Target: T2, HER3 peptide 343-357 DFLITGLNGDPWHKI
Assay: SPOT peptide array, antibody at 1 µg/ml

binding result	Binder
binds	B2

Each binder was assayed against T1, human HER4-Fc (recombinant human …) (assay: ELISA, coated HER4-Fc 50 ng).
Description: The bound IgG were detected by using HRP-F(ab′) 2 goat anti human IgG F(ab′)2 specific (Interchim).

binding result	Binder
no binding (tested: 0.5 µg/ml)	B1
no binding (tested: 0.5 µg/ml)	B2
no binding (tested: 0.5 µg/ml)	B3
no binding (tested: 0.5 µg/ml)	B4
no binding (tested: 0.5 µg/ml)	B5

The binders below were run against T3, EGFR on transfected NIH 3T3 cells (assay: flow cytometry, EGFR-transfected NIH-3T3 cells).
Experimental: as §1

geometric mean	Binder
0.25	B6
0.21	B7
0.26	B1
0.33	B2
0.24	B3
0.28	B4
0.26	B5
